Numbered stars: 1 amine (or outer) side, 2 acyl side, 3 side chain; on linkers, the order of the positions; unused ones are H or OH. Bridge positions count the residues as written; N and C are the ends. Side chains are listed from the residue outwards. Ends that are not written are not given here. * marks the point of attachment. C20 diacid = O=C(O)CCCCCCCCCCCCCCCCCCC(=O)*; γGlu = O=C(O)[C@H](CCC(=O)[*:2])N[*:1]; AEEA = NCCOCCOCC(=O)O
T1: human calcitonin receptor (human, UniProt P30988 25-474)
T1 sequence (looked up): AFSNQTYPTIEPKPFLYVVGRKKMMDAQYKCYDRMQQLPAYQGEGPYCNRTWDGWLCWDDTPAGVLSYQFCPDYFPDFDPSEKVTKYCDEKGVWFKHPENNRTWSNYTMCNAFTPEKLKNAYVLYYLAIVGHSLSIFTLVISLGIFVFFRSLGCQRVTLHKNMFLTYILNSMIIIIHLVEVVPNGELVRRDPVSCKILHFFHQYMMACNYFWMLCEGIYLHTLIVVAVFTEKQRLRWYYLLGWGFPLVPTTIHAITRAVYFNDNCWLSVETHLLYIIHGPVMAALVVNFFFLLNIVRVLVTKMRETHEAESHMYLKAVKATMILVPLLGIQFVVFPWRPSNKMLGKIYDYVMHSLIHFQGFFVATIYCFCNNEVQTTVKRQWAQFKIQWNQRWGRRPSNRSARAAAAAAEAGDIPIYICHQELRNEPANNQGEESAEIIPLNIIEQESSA

T2: rat calcitonin receptor (rat, UniProt P32214 25-516)
T2 construct: whole, on cells; Membranes prepared from transiently transfected BHK tk'ts 13 cells (Assay VIII); also called rCTR; rCT
T2 sequence (looked up): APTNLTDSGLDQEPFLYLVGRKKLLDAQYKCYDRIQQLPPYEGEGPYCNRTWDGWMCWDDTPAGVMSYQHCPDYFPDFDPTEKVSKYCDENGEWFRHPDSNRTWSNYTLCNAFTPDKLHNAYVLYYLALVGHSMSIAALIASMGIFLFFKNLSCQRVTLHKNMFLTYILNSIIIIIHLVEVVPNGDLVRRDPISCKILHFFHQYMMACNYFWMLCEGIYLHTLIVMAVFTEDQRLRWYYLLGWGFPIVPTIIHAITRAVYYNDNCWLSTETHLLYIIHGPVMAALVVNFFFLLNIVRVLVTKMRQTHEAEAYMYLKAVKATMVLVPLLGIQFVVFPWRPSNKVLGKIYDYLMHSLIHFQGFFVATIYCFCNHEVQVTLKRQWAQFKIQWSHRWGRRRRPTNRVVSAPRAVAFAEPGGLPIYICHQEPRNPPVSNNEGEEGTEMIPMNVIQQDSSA

T3: human calcitonin receptor (human, UniProt P30988 25-474)
T3 construct: whole, on cells; Membranes prepared from a stably transfected BHK cell line (Assay VII); also called hCTR; hCT
T3 sequence (looked up): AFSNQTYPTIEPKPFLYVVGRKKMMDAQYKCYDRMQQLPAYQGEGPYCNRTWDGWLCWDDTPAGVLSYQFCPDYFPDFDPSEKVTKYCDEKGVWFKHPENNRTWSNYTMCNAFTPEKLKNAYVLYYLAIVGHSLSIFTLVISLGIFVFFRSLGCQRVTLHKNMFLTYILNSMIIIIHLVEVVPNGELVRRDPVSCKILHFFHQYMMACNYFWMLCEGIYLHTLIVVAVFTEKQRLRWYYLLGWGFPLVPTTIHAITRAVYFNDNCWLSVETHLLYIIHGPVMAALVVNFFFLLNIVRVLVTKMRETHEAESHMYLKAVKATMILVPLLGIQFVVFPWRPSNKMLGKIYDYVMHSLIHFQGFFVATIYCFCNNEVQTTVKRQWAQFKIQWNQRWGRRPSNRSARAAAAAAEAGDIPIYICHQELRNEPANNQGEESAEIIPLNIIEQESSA

T4: rat amylin receptor (rat calcitonin receptor + rat RAMP 3) (rat, UniProt P32214 25-516; Q9JJ73 23-147)
T4 construct: whole, on cells; Membranes prepared from transiently transfected BHK tk'ts 13 cells (Assay VI); also called rAmylin-R; rAmylin
T4 sequence (looked up) 1: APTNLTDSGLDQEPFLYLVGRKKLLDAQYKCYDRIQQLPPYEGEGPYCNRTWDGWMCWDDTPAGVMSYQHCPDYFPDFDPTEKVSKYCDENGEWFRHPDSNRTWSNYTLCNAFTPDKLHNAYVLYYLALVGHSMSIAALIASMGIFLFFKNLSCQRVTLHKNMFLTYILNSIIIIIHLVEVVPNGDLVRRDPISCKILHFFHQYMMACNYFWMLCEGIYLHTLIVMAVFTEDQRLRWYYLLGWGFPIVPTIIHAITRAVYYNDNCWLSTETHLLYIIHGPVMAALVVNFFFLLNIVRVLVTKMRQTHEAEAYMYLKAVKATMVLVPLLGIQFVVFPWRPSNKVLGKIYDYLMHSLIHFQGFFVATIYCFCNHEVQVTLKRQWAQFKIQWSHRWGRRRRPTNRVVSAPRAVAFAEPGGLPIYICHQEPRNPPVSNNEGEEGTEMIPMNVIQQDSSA
T4 sequence (looked up) 2: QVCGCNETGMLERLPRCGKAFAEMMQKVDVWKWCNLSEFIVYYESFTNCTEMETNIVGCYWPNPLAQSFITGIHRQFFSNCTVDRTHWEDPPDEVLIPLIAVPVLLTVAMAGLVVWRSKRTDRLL


What was measured:
[1] = molecular target: T1, human calcitonin receptor; assay: cell-based or functional assay
rat calcitonin receptor [2] = molecular target: T2, rat calcitonin receptor; assay: ratio of binding IC50s: rat calcitonin receptor / rat amylin receptor (reference)
[3] = molecular target: T3, human calcitonin receptor; assay: ratio of binding IC50s: human calcitonin receptor / human amylin receptor (reference)
Procedure, shortened: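 Membranes (35 ng/μL final) + SPA beads, 50 mM Hepes pH 7.4 buffer with 1 mM CaCl2, 5 mM MgCl₂, 0.1% OA, 0.02% Tween20; 120 min, 25° C, shaking; centrifuged, counted; IC₅₀ by one-site binding competition.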

rat calcitonin receptor [4] = molecular target: T2, rat calcitonin receptor; assay: SPA competition vs 125I-calcitonin, membranes of BHK cells with rat calcitonin receptor (Assay VIII)
[5] = molecular target: T4, rat amylin receptor (rat calcitonin …); assay: SPA competition vs 125I-rat amylin, membranes of BHK cells with rat calcitonin receptor + rat RAMP3 (Assay VI)

hCTR funct. EC50 [1]	Ratio rCT/rAmylin binding (rat calcitonin receptor [2])	Ratio hCT/hAmylin binding [3]	IC50 (rat calcitonin receptor [4])	IC50 [5]	Binder
1.25 nM	–	–	–	–	K([AEEA-γGlu-C20 diacid])CNTATCATQRLAHFLRHSSPNFGAIPSSTNVGSNTY-NH2 (disulfide 2-7; N-terminus assumed; SMILES CC[C@H](C)[C@H](NC(=O)[C@H](C)NC(=O)CNC(=O)[C@H](Cc1ccccc1)NC(=O)[C@H](CC(N)=O)NC(=O)[C@@H]1CCCN1C(=O)[C@H](CO)NC(=O)[C@H](CO)NC(=O)[C@H](Cc1c[nH]cn1)NC(=O)[C@H](CCCNC(=N)N)NC(=O)[C@H](CC(C)C)NC(=O)[C@H](Cc1ccccc1)NC(=O)[C@H](Cc1c[nH]cn1)NC(=O)[C@H](C)NC(=O)[C@H](CC(C)C)NC(=O)[C@H](CCCNC(=N)N)NC(=O)[C@H](CCC(N)=O)NC(=O)[C@@H](NC(=O)[C@H](C)NC(=O)[C@@H]1CSSC[C@H](NC(=O)[C@@H](N)CCCCNC(=O)COCCOCCNC(=O)CC[C@H](NC(=O)CCCCCCCCCCCCCCCCCCC(=O)O)C(=O)O)C(=O)N[C@@H](CC(N)=O)C(=O)N[C@@H]([C@@H](C)O)C(=O)N[C@@H](C)C(=O)N[C@@H]([C@@H](C)O)C(=O)N1)[C@@H](C)O)C(=O)N1CCC[C@H]1C(=O)N[C@@H](CO)C(=O)N[C@@H](CO)C(=O)N[C@H](C(=O)N[C@@H](CC(N)=O)C(=O)N[C@H](C(=O)NCC(=O)N[C@@H](CO)C(=O)N[C@@H](CC(N)=O)C(=O)N[C@H](C(=O)N[C@@H](Cc1ccc(O)cc1)C(N)=O)[C@@H](C)O)C(C)C)[C@@H](C)O, also called compound 69)
–	74.1	42.2	18.2 nM	0.246 nM	K([AEEA-C20 diacid])CNTATCATQRLAHFLRHSSPNFGAIPSSTNVGSNTY-NH2 (disulfide 2-7; N-terminus assumed; SMILES CC[C@H](C)[C@H](NC(=O)[C@H](C)NC(=O)CNC(=O)[C@H](Cc1ccccc1)NC(=O)[C@H](CC(N)=O)NC(=O)[C@@H]1CCCN1C(=O)[C@H](CO)NC(=O)[C@H](CO)NC(=O)[C@H](Cc1c[nH]cn1)NC(=O)[C@H](CCCNC(=N)N)NC(=O)[C@H](CC(C)C)NC(=O)[C@H](Cc1ccccc1)NC(=O)[C@H](Cc1c[nH]cn1)NC(=O)[C@H](C)NC(=O)[C@H](CC(C)C)NC(=O)[C@H](CCCNC(=N)N)NC(=O)[C@H](CCC(N)=O)NC(=O)[C@@H](NC(=O)[C@H](C)NC(=O)[C@@H]1CSSC[C@H](NC(=O)[C@@H](N)CCCCNC(=O)COCCOCCNC(=O)CCCCCCCCCCCCCCCCCCC(=O)O)C(=O)N[C@@H](CC(N)=O)C(=O)N[C@@H]([C@@H](C)O)C(=O)N[C@@H](C)C(=O)N[C@@H]([C@@H](C)O)C(=O)N1)[C@@H](C)O)C(=O)N1CCC[C@H]1C(=O)N[C@@H](CO)C(=O)N[C@@H](CO)C(=O)N[C@H](C(=O)N[C@@H](CC(N)=O)C(=O)N[C@H](C(=O)NCC(=O)N[C@@H](CO)C(=O)N[C@@H](CC(N)=O)C(=O)N[C@H](C(=O)N[C@@H](Cc1ccc(O)cc1)C(N)=O)[C@@H](C)O)C(C)C)[C@@H](C)O, Analogue of human amylin; also called compound 90) [N^ε1-[2-[2-[2-(19-carboxynonadecanoylamino)ethoxy]ethoxy]acetyl]-[His14,Arg17,Pro21,Pro27]-h-amylin]
–	96.5	60.8	34.2 nM	0.355 nM	K([γGlu-C20 diacid])CNTATCATQRLAHFLRHSSPNFGAIPSSTNVGSNTY-NH2 (disulfide 2-7; N-terminus assumed; SMILES CC[C@H](C)[C@H](NC(=O)[C@H](C)NC(=O)CNC(=O)[C@H](Cc1ccccc1)NC(=O)[C@H](CC(N)=O)NC(=O)[C@@H]1CCCN1C(=O)[C@H](CO)NC(=O)[C@H](CO)NC(=O)[C@H](Cc1c[nH]cn1)NC(=O)[C@H](CCCNC(=N)N)NC(=O)[C@H](CC(C)C)NC(=O)[C@H](Cc1ccccc1)NC(=O)[C@H](Cc1c[nH]cn1)NC(=O)[C@H](C)NC(=O)[C@H](CC(C)C)NC(=O)[C@H](CCCNC(=N)N)NC(=O)[C@H](CCC(N)=O)NC(=O)[C@@H](NC(=O)[C@H](C)NC(=O)[C@@H]1CSSC[C@H](NC(=O)[C@@H](N)CCCCNC(=O)CC[C@H](NC(=O)CCCCCCCCCCCCCCCCCCC(=O)O)C(=O)O)C(=O)N[C@@H](CC(N)=O)C(=O)N[C@@H]([C@@H](C)O)C(=O)N[C@@H](C)C(=O)N[C@@H]([C@@H](C)O)C(=O)N1)[C@@H](C)O)C(=O)N1CCC[C@H]1C(=O)N[C@@H](CO)C(=O)N[C@@H](CO)C(=O)N[C@H](C(=O)N[C@@H](CC(N)=O)C(=O)N[C@H](C(=O)NCC(=O)N[C@@H](CO)C(=O)N[C@@H](CC(N)=O)C(=O)N[C@H](C(=O)N[C@@H](Cc1ccc(O)cc1)C(N)=O)[C@@H](C)O)C(C)C)[C@@H](C)O, Analogue of human amylin; also called compound 70) [N^ε1-[(4S)-4-carboxy-4-(19-carboxynonadecanoylamino)butanoyl]-[His14,Arg17,Pro21,Pro27]-h-amylin]

— US20140087995A1 (published 2014)
